{"source": "patent CN115819563A", "target": "猪伪狂犬病毒gE蛋白 (on inactivated pseudorabies virus) (pseudorabies virus (PRV))", "note": "Where “and” joins values, the source holds several entries; their conditions need not be identical. Identical values can stand only once."}
{"binder": "抗猪伪狂犬病毒gE蛋白单克隆抗体 (antibody, V domains shown) VH: EVQLQESAHELVKPGASVKIPCKASGYTFTDYNMHWVKQSLRKSLEWIGDIHPNNGGTIYNQKCMGKATLTVDKSSSTADMELRSLTSDDTAVYSCAREGIHCYGSCYVRYDLDYCRQGTTLTVSS VL: DTVLTQSSASLAVSLCQRATISCKASQSVDHDGDSYMNWSQQRPSQSSTLLIYAASNLESGIPARFSCSGSRTDFTLNIHPVEEEDAATYYCQQT", "values": [{"measurement": "OD450nm", "result": "2.59 OD450nm and 2.57 OD450nm and 2.62 OD450nm"}]}
